Data published in IntAct's records for PubMed 11483518.

B1: POU domain class 2-associating factor 1 (Homo sapiens), Q16633 (parent)
chain: MLWQKPTAPEQAPAPARPYQGVRVKEPVKELLRRKRGHASSGAAPAPTAVVLPHQPLATYTTVGPSCLDMEGSVSAVTEEAALCAGWLSQPTPATLQPLAPWTPYTEYVPHEAVSCPYSADMYVQPVCPSYTVVGPSSVLTYASPPLITNVTTRSSATPAVGPPLEGPEHQAPLTYFPWPQPLSTLPTSTLQYQPPAPALPGPQFVQLPISIPEPVLQDMEDPRRAASSLTIDKLLLEEEDSDAYALNHTLSVEGF
partner: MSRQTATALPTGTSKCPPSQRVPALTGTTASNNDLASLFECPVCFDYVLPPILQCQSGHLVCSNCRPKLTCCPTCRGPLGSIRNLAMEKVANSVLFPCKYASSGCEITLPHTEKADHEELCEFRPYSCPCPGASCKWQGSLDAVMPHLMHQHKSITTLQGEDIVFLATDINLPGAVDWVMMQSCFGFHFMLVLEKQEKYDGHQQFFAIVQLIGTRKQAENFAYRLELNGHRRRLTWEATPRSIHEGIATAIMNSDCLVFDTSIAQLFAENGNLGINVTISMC

Variants of: B1
Conditions: with siah1_human SIAH1, Q8IUQ4

effect of a mutation on the interaction | Variant
disrupting interaction | MLWQKPTAPEQAPAPARPYQGVRVKEPVKELLRRKRGHASSGAAPAPTAVELPHQPLATYTTVGPSCLDMEGSVSAVTEEAALCAGWLSQPTPATLQPLAPWTPYTEYVPHEAVSCPYSADMYVQPVCPSYTVVGPSSVLTYASPPLITNVTTRSSATPAVGPPLEGPEHQAPLTYFPWPQPLSTLPTSTLQYQPPAPALPGPQFVQLPISIPEPVLQDMEDPRRAASSLTIDKLLLEEEDSDAYALNHTLSVEGF [V51E]
